The results in this text go back to patent US20240376183A1.

Test in all cases: cell-based or functional assay
In experiment [1] the target is HIV-1 Env of pseudovirus strain 6545.v4.c1 (HIV-1).
The target in experiment [2] is HIV-1 Env protein of virus strain 89-F1_2_25 (HIV-1).
The target of experiment [3] is HIV-1 YU2 Env, wild type (YU2 pseudovirus) (HIV-1) (UniProt P35961).
Chain of HIV-1 YU2 Env, wild type (YU2 pseudovirus) (HIV-1) (P35961 32-843 limits assumed): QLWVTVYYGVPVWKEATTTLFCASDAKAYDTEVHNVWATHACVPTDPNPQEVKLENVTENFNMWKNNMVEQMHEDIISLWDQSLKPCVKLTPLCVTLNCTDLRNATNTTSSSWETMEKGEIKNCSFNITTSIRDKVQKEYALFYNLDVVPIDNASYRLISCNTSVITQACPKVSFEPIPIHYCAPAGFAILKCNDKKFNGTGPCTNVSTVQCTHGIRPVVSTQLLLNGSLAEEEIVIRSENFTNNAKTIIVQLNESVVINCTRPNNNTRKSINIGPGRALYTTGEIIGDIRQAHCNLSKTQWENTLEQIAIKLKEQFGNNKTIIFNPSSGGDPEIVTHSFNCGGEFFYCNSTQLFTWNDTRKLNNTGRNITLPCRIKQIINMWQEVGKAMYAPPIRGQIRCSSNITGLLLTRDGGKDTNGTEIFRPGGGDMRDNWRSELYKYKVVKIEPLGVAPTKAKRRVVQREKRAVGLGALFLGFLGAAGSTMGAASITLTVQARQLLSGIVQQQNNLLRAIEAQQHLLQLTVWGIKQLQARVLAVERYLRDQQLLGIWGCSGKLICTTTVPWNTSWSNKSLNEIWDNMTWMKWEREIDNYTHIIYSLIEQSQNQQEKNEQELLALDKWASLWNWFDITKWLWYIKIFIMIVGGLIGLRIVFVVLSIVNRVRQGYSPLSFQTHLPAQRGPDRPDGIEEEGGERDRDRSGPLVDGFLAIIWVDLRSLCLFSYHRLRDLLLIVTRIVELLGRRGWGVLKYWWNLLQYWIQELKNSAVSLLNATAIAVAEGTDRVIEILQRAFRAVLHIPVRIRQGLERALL

Take 3BNC117 (antibody): the IC50, TZM-bl pseudovirus neutralization assay in experiment [1] and in experiment [2] was more than 20 µg/mL each time. For 8ANC131 (antibody), the IC50, TZM-bl cell neutralization assay in experiment [3] came out at 0.256 µg/mL. For the substance N6 (antibody), the IC50, TZM-bl pseudovirus neutralization assay in experiment [1] is 16.2 µg/mL; in experiment [2], more than 20 µg/mL. With VRC01 (antibody), the IC50, TZM-bl cell neutralization assay in experiment [3] is 0.107 µg/mL. For the same substance, the IC50, TZM-bl pseudovirus neutralization assay in experiment [1] and in experiment [2] was more than 20 µg/mL in each case. In turn, VRC07-523-LS (antibody) displayed an IC50, TZM-bl pseudovirus neutralization assay in experiment [1] of more than 20 µg/mL.
